Laboratory results from US20040171074A1, “Structures of substrate binding pockets of SCF complexes” (MOUNT SINAI HOSPITAL, priority 2002, published 2004).
Residue numbers refer to the chain shown, from its start. In names and notes the source's numbering stands. Entries after “also recorded” stand apart in the source; their conditions may differ.

B1: Y548F: mutant cdc4 polypeptide (protein)
chain: MGSFPLAEFPLRDIPVPYSYRVSGGIASSGSVTALVTAAGTHRNSSTAKTVETEDGEEDIDEYQRKRAAGSGESTPERSDFKRVKHDNHKTLHPVNLQNTGAASVDNDGLHNLTDISNDAEKLLMSVDDGSAAPSTLSVNMGVASHNVAAPTTVNAATITGSDVSNNVNSATINNPMEEGALPLSPTASSPGTTTPLAKTTKTINNNNNIADLIESKDSIISPEYLSDEIFSAINNNLPHAYFKNLLFRLVANMDRSELSDLGTLIKDNLKRDLITSLPFEISLKIFNYLQFEDIINSLGVSQNWNKIIRKSTSLWKKLLISENFVSPKGFNSLNLKLSQKYPKLSQQDRLRLSFLENIFILKNWYNPKFVPQRTTLRGHMTSVITCLQFEDNYVITGADDKMIRVYDSINKKFLLQLSGHDGGVWALKYAHGGILVSGSTDRTVRVWDIKKGCCTHVFKGHNSTVRCLDIVEYKNIKYIVTGSRDNTLHVWKLPKESSVPDHGEEHDYPLVFHTPEENPYFVGVLRGHMASVRTVSGHGNIVVSGSFDNTLIVWDVAQMKCLYILSGHTDRIYSTIYDHERKRCISASMDTTIRIWDLENIWNNGECSYATNSASPCAKILGAMYTLQGHTALVGLLRLSDKFLVSAAADGSIRGWDANDYSRKFSYHHTNLSAITTFYVSDNILVSGSENQFNIYNLRSGKLVHANILKDADQIWSVNFKGKTLVAAVEKDGQSFLEILDFSKASKINYVSNPVNSSSSSLESISTSLGLTRTTIIP
B2: T441I/T465I: double mutant cdc4 polypeptide (protein)
chain: B1 chain with T441I, T465I, F548Y
B3: R572A: mutant cdc4 polypeptide (protein)
chain: B1 chain with F548Y, R572A
B4: K402A: mutant cdc4 polypeptide (protein)
chain: B1 chain with K402A, F548Y
B5: R443A: mutant cdc4 polypeptide (protein)
chain: B1 chain with R443A, F548Y

Legend:
[1] = tested on: phospho-Sic1; experiment: P-Sic1 pull down: in vitro capture of phospho-Sic1 on immobilized wild type or mutant Cdc4-GST-Skp1, anti-Sic1 immunoblot; format: binding, yeast; details: Sic1 phosphorylated with Cln2-Cdc28, captured onto GST-Skp1/Cdc4 resin, anti-Sic1 detection
Protocol: (§1) Mutational analysis of the CPD binding surface. Mutants were tested in vitro by ability to bind phosphorylated Sic1 and then captured onto GST-Skp1/Cdc4 resin and detected with anti-sic1 antibody. Mutants were tested in vivo by ability to degrade GAL1-SIC1 or various phosphorylation mutants. Sites are as follows: 3=Thr 33, Thr 45, Ser 76; 4=Thr 5, Thr 33, Thr 45, Ser 76; 5=Thr 2, Thr 5, Thr 33, Thr 45, Ser 76; 6=Thr 2, Thr 5, Thr 33, Thr 45, Ser 69, Ser 76; 7=Thr 2, Thr 5, Thr 33, Thr 45, Ser 69, Ser 76, Ser 80. GAL1-SIC1 plasmids were transformed into a cdc4Δ strain containing a copy of CDC4 on a TRP1 ARS CEN plasmid. Strains were incubated for 2 days at 30° C.
Bacterially expressed His6-Sic1 was phosphorylated with Cln2-Cdc28 kinase purified from baculovirus infected Sf9 cells as described before (Nature paper). 1 ug of WT or mutant Cdc4-GST-Skp1, immoblized on GSH-Sepharose resin, was incubated with 0.5 ug phospho-Sic1 at 4 C for 1 h and washed 4 times. Captured complexes were resolved on SDS-PAGE and Sic1 visualized by anti-Sic1 Western blotting and ECL. For IEF-2D analysis, several Sic1 phosphorylation reactions were carried out for different time periods to obtain a spectrum of Sic1 that were phosphorylated at different numbers of its nine CDK sites. This pool of phospho-Sic1 (2.5 ug) was incubated with 5 μg of WT or mutant Cdc4-GST-Skp1 as described above. Different phosphorylation states of Sic1 were separated by denaturing isoelectric focusing (IEF)-2D gel electrophoresis and visualized by anti-Sic1 Western blotting and ECL. IEF was performed using pH 3-10NL Immobiline gel strips and IPGphore IEF system (Amersham pharmacia).
(§2) Cdc4 functional assays. CDC4 mutant alleles were assessed for complementation of a cdc4A strain in a plasmid shuffle assay (Nash et al., 2001). Sensitivity to SIC1 dosage was determined by transformation with pMT837 (GAL1-SIC1) or pMT767 (GAL1-SIC1^T33V) and plating on glucose medium or galactose medium. For in vitro capture of phospho-Sic1 by Cdc4, 0.5 μg of bacterially-expressed ^HIS6Sic1 was phosphorylated with immobilized Cln2-Cdc28 kinase from baculovirus-infected Sf9 cells and then incubated with 1 μg of immobilized wild type or mutant Cdc4^263-744-GST-Skp1, at 4° C. for 1 hr, washed 4 times and visualized by anti-Sic1 immunoblot. For isoelectric focusing (IEF)-2D gel analyses, an evenly distributed pool of phospho-Sic1 isoforms was generated by combining different time points in a Sic1 phosphorylation reaction. 2.5 μg of the phospho-Sic1 pool was bound to 5 μg of immobilized wild type or mutant Cdc4^1-744-GST-Skp1. Captured isoforms were separated by denaturing IEF-2D gel electrophoresis using pH3-10NL Immobiline gel strips (Amersham) and visualized by anti-Sic1 immunoblot. Alternatively, the pool of phospho-Sic1 isoforms was incubated in solution with a ubiquitination reaction mix containing ATP, ubiquitin, yeast E1, Cdc34 and either wild type or mutant SCF^Cdc4 complex, composed of a 1:1 ratio of bacterial Cdc4-GST-Skp1 and insect cell-produced Cdc53-Rbx1, at 30° C. for 1 h as previously described (Nash et al., 2001).

[2] = tested on: cdc4Δ strain; experiment: plasmid shuffle assay: complementation of a cdc4Δ strain by CDC4 alleles; format: cell-based, yeast; details: viability of cdc4Δ strain on 5-FOA, 2 days at 30° C.
Protocol: (§3) All mutants on a TRP1 ARS CEN plasmid were transformed into a cdc4Δ strain (MT 1259) containing a wildtype copy of CDC4 on a URA3 ARS CEN plasmid. Cells were plated on either Trp^−Ura^− or 5-FOA medium for 2 days at 30° C. Viable cells on 5-FOA were grown in Trp medium and transformed with either wild type GAL1-SIC1, GAL1-SIC T45A, or GAL1-SIC T33V on a LEU2 ARS CEN pasmid. Cells were then plated on Leu- Trp-plates containing either glucose or galactose and incubated for 2 days at 30° C.
as §2

[3] = tested on: cdc4Δ strain overexpressing SIC1; experiment: sensitivity to SIC1 dosage: GAL1-SIC1 overexpression in strains bearing CDC4 alleles; format: cell-based, yeast; details: for gal Sic1T33V: GAL1-SIC1 T33V (partially stabilized Sic1); for gal Sic1T33V / gal Sic1T45A / gal Sic1 wt: galactose, 2 days at 30° C.; for gal Sic1T45A: GAL1-SIC1 T45A; for gal Sic1 wt: GAL1-SIC1 wild type; for viability / sensitivity to increased SIC1 dosage: Sic1 wt or stabilized Sic1(T33V) or Sic1(T45A) over-expressed under a galactose promoter
Protocol: as §1, §3
Since the cell viability assay nay be masking subtle functional roles for the conserved Cdc4 residues, function was assayed in vivo under more stringent conditions in which Sic1 wt or the stabilized mutants, Sic1 (T33V) or Sic1(T45A) are over-expressed under a galactose promoter. This should amplify defects in cdc4 function. Under these conditions, Trp 717, Tyr 548 and the double mutant K404D/R443D are lethal showing that these residues are in fact important for functions
as §2

| Molecule | P-Sic1 pull down [1] | P-Sic1 pull down ([1]; listed as Tyr 548) | shuffle [2] | shuffle ([2]; listed as Tyr 548) | shuffle ([2]; listed as Tyr548) | gal Sic1T33V [3] | gal Sic1T33V ([3]; listed as Tyr548) | gal Sic1T45A [3] | gal Sic1 wt [3] | viability / sensitivity to increased SIC1 dosage [3] | P-Sic1 pull down ([1]; listed as Arg572) | shuffle ([2]; listed as Arg572) | gal Sic1T33V ([3]; listed as Arg 572) | P-Sic1 pull down ([1]; listed as Lys402Ala) | shuffle ([2]; listed as Lys402Ala) | P-Sic1 pull down ([1]; listed as Arg443Ala) | shuffle ([2]; listed as Arg443Ala) |
| --- | --- | --- | --- | --- | --- | --- | --- | --- | --- | --- | --- | --- | --- | --- | --- | --- | --- |
| B1 | no bind | compromised | alive | fractional | did not cause loss of viability | dead | dosage sensitivity | dead | alive | lethal |  |  |  |  |  |  |  |
| B2 | fully competent |  | viable |  |  |  |  |  |  |  |  |  |  |  |  |  |  |
| B3 | no bind |  | alive |  |  | dead |  | dead | alive |  | inablity to bind | same behavior | same effect |  |  |  |  |
| B4 | bind |  | alive |  |  | alive |  | dead | alive | indistinguishable from wild type |  |  |  | fully competent; also recorded: indistinguishable from wild type | viable; also recorded: indistinguishable from wild type |  |  |
| B5 | bind |  | alive |  |  | alive |  | dead | alive | indistinguishable from wild type |  |  |  |  |  | fully competent; also recorded: indistinguishable from wild type | viable; also recorded: indistinguishable from wild type |
